Tests used:
[1] = molecular target: T1, HA-DAPk (N-terminal hemaglutinin-tagged human full-length death-associated protein kinase) (human, UniProt P53355 1-1430); assay: co-immunoprecipitation with anti-Flag beads from co-transfected HEK 293T cells, western blot (FIG. 2B)
T1 construct: also called HA-DAPk (WT); DAPk WT; not shown: N-terminal HA (hemaglutinin) tag
Description: FIG. 2A, Schematic representation of the different DAPk constructs utilized for mapping DAPk homo-oligomerization. The indicated domains: Kinase domain (KD); Ca⁺²/Calmodulin binding region (CaM); Ankyrin repeats (AK); P-Loop; Ras of complex proteins domain (ROC); C-terminal of ROC domain (COR); Death domain (DD); and Serine (Ser) rich tail. […] Immunoprecipitation with anti-Flag beads (IP-α-Flag) was performed and immuno-complexes and cell extracts were analyzed by western blot. FIG. 2C, Cells co-transfected with Flag-DAPk and one of the different HA-tagged DAPk constructs, namely HA-DAPk (WT), HA-ΔROC—a deletion between amino acids 667-954; HA-ΔKinase—a N-terminal deletion (1-285); and ΔROC/ΔKinase—deletion of both KD (1-285) and ROC domain (667-954). Immunoprecipitation and western blot were performed as in B. FIG. 2D, Cells co-transfected with Flag-ROC and HA-ROC; HA-ROC and Flag-ROC-Δ-P-loop; Flag-ROC and HA-DAPk (WT); Flag-ROC-Δ-P-Loop and HA-DAPk (WT); or HA-ROC and DAP1-Flag.
Immunoprecipitation with anti-Flag beads (IP-α-Flag) was performed and immuno-complexes and cell extracts were analyzed by western blot. […] Thus, ROC fragment by itself is sufficient to bind the full length DAPk. Also the ROC fragments interacted with each other (FIG. 2D). […] Together the experiments in FIG. 2B-D established the role of the ROC domain in mediating homo-oligomerization.

[2] = molecular target: the molecule itself; assay: analytical size exclusion chromatography (Superdex 200) of immunopurified Flag-DAPk
From the text: Immunopurified Flag-DAPk was loaded onto an analytical Superdex™ 200 10/300 (GE Healthcare) gel-filtration column equilibrated with TBS. The eluting protein was detected by UV absorbance at 280 nm. Fractions were collected using the AKTA Prime fraction collector and analyzed by Western blot with anti-Flag antibodies. The migration position of the fractions containing Flag-DAPk was assigned relative to the migration position of Gel Filtration Calibration HMW standards (GE Healthcare) on the same column.
It elutes in two clearly defined peaks corresponding to ˜640 kDa and ˜320 kDa (FIG. 1D). […] Furthermore, the absence of a peak at the 160 kDa size range excluded the existence of monomers under native conditions. Fractions were collected at indicated elution points and submitted to western blot analysis, confirming DAPk identity at the selected peaks (FIG. 1E).

B1: DAP1-Flag (C-terminal Flag-tagged death-associated protein 1) (other, UniProt P51397 2-102, looked up)
chain: SSPPEGKLETKAGHPPAVKAGGMRIVQKHPHTGDTKEEKDKDDQEWESPSPPKPTVFISGVIARGDKDFPPAAAQVAHQKPHASMDKHPSPRTQHIQQPRK
notes: Irrelevant Flag-tagged control protein; not shown: C-terminal Flag tag
binding result [1]: no binding

B2: Flag-DAPk (N-terminal Flag-tagged human full-length death-associated protein kinase) (enzyme)
chain: MTVFRQENVDDYYDTGEELGSGQFAVVKKCREKSTGLQYAAKFIKKRRTKSSRRGVSREDIEREVSILKEIQHPNVITLHEVYENKTDVILILELVAGGELFDFLAEKESLTEEEATEFLKQILNGVYYLHSLQIAHFDLKPENIMLLDRNVPKPRIKIIDFGLAHKIDFGNEFKNIFGTPEFVAPEIVNYEPLGLEADMWSIGVITYILLSGASPFLGDTKQETLANVSAVNYEFEDEYFSNTSALAKDFIRRLLVKDPKKRMTIQDSLQHPWIKPKDTQQALSRKASAVNMEKFKKFAARKKWKQSVRLISLCQRLSRSFLSRSNMSVARSDDTLDEEDSFVMKAIIHAINDDNVPGLQHLLGSLSNYDVNQPNKHGTPPLLIAAGCGNIQILQLLIKRGSRIDVQDKGGSNAVYWAARHGHVDTLKFLSENKCPLDVKDKSGEMALHVAARYGHADVAQLLCSFGSNPNIQDKEEETPLHCAAWHGYYSVAKALCEAGCNVNIKNREGETPLLTASARGYHDIVECLAEHGADLNACDKDGHIALHLAVRRCQMEVIKTLLSQGCFVDYQDRHGNTPLHVACKDGNMPIVVALCEANCNLDISNKYGRTPLHLAANNGILDVVRYLCLMGASVEALTTDGKTAEDLARSEQHEHVAGLLARLRKDTHRGLFIQQLRPTQNLQPRIKLKLFGHSGSGKTTLVESLKCGLLRSFFRRRRPRLSSTNSSRFPPSPLASKPTVSVSINNLYPGCENVSVRSRSMMFEPGLTKGMLEVFVAPTHHPHCSADDQSTKAIDIQNAYLNGVGDFSVWEFSGNPVYFCCYDYFAANDPTSIHVVVFSLEEPYEIQLNQVIFWLSFLKSLVPVEEPIAFGGKLKNPLQVVLVATHADIMNVPRPAGGEFGYDKDTSLLKEIRNRFGNDLHISNKLFVLDAGASGSKDMKVLRNHLQEIRSQIVSVCPPMTHLCEKIISTLPSWRKLNGPNQLMSLQQFVYDVQDQLNPLASEEDLRRIAQQLHSTGEINIMQSETVQDVLLLDPRWLCTNVLGKLLSVETPRALHHYRGRYTVEDIQRLVPDSDVEELLQILDAMDICARDLSSGTMVDVPALIKTDNLHRSWADEEDEVMVYGGVRIVPVEHLTPFPCGIFHKVQVNLCRWIHQQSTEGDADIRLWVNGCKLANRGAELLVLLVNHGQGIEVQVRGLETEKIKCCLLLDSVCSTIENVMATTLPGLLTVKHYLSPQQLREHHEPVMIYQPRDFFRAQTLKETSLTNTMGGYKESFSSIMCFGCHDVYSQASLGMDIHASDLNLLTRRKLSRLLDPPDPLGKDWCLLAMNLGLPDLVAKYNTSNGAPKDFLPSPLHALLREWTTYPESTVGTLMSKLRELGRRDAADFLLKASSVFKINLDGNGQEAYASSCNSGTSYNSISSVVSR
notes: bait in anti-Flag immunoprecipitation; also called full length DAPk; not shown: N-terminal Flag tag
binding result [2]: binds

Source: patent US20130266582A1 (YEDA RESEARCH AND DEVELOPMENT, published 2013)
